Biological target: TGFβ receptor complex of wild type TβRII and kinase-deficient TβRI (KR) (Homo sapiens (Human)) (UniProt P37173)
Test: anti-Flag IP of [125I]TGFβ affinity-labelled receptors, gamma counting; reference: without Smad2

fold enhancement of receptor binding by coexpressed Smad2: 2 fold
Substance: Flag-tagged hSARA1

Source: patent US7105636B1
